Tests used:
HLA-A*0201 = target: T1, HLA-A*0201 (Homo sapiens, UniProt P04439, D140Y/D185E/D98H/E176V/E277Q/G131W/G231S/I119V/I121R/I166T/I218V/L300P/L318F/N151K/N90K/P208A/P217A/Q86G/Q94H/R138H/R169H/T345S); assay: Affinity of the peptide to HLA-A*0201 measured on T2 cell line (FACS, anti-HLA-A2 labelling); assay type: binding; settings: for binding to HLA-A*0201 / affinity to HLA-A*0201 compared with the peptide 1A9V: Example 3, FIG. 4, T2 cells; for peptide concentration inducing 20% of expression of the HLA-A*0201: T2 cells
T1 construct: human tumoral cell T2 which expresses the HLA-A*0201 molecule, but which is TAP1/2 negative; endogenous in cells; host or cells: T2 cells (human, TAP1/2 negative)
Source text: The experimental protocol is similar to the one that was validated for peptides presented by the HLA-A*0201 (Tourdot et al., A general strategy to enhance immunogenicity of low-affinity HLA-A2.1-associated peptides: implication in the identification of cryptic tumor epitopes. Eur J Immunol. 2000 December; 30 (12): 3411-21). Affinity measurement of the peptides is achieved with the human tumoral cell T2 which expresses the HLA-A*0201 molecule, but which is TAP1/2 negative and incapable of presenting endogenous peptides.
(§1) T2 cells (2.10^5 cells per well) are incubated with decreasing concentrations of peptides from 100 μM to 0.1 μM in a AIMV medium supplemented with 100 ng/μl of human β2m at 37° C. for 16 hours. Cells are then washed two times and marked with the anti-HLA-A2 antibody coupled to PE (clone BB7.2, BD Pharmagen).
The analysis is achieved by FACS (Guava Easy Cyte).
(§2) For each peptide concentration, the geometric mean of the labelling associated with the peptide of interest is substracted from background noise and reported as a percentage of the geometric mean of the […] labelling obtained for the reference peptide HIV pol 589-597 at a concentration of 100 μM. The relative affinity is then determined as follows: relative affinity=concentration of each peptide inducing 20% of expression of HLA-A*0201/concentration of the reference peptide inducing 20% of expression of HLA-A*0201. A2. Solubilisation of Peptides
The experimental protocol was similar to the one that was validated for peptides presented by the HLA-A*0201 (Tourdot et al., A general strategy to enhance immunogenicity of low-affinity HLA-A2.1-associated peptides: implication in the identification of cryptic tumor epitopes. Eur J Immunol. 2000 December; 30 (12): 3411-21).
as §1, with “were” for “are”
The analysis was achieved by FACS (Guava Easy Cyte).
as §2, with “was subtracted” for “is substracted”
The experimental protocol, materials and methods correspond to those outlined in Example 3, with the only difference that the above mentioned antigenic peptides were used.

β/A2/DR3 mice = assay: ELISPOT-IFNγ assay on splenocytes of vaccinated β/A2/DR3 mice; assay type: in vivo, mouse; settings: as compared to IL13RA2-H-vaccinated animals (group 2)

Sequence | binding to HLA-A*0201 (HLA-A*0201) | affinity to HLA-A*0201 compared with the peptide 1A9V (HLA-A*0201) | peptide concentration inducing 20% of expression of the HLA-A*0201 (HLA-A*0201) | T cell responses in the ELISPOT-IFNγ assay after vaccination (β/A2/DR3 mice)
CLYTFLIST [IL13RA2-H2, reference compound] | do not bind to or show much lower affinity |  |  | 
YLYTFLIST [IL13RA2-B2] | bind strongly | higher affinity |  | 
FLPFGFILV [IL13RA2-B] | bind strongly | higher affinity | 4.4 µM | improved T cell responses
WLPFGFILI [IL13RA2-H, reference compound] | do not bind to or show much lower affinity |  | 100 UM | 
